One block for each binder: values may come before it.
Legend:
O14-bP = biological target: T1, O14-bP; assay: two-hybrid library CCNG1;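 note: natural log of median RNA to DNA barcode read ratio; higher means stronger binding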
T1 chain: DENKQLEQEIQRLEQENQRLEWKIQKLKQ

O15-bP = biological target: T2, O15-bP; assay: two-hybrid library CCNG1;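 note: natural log of median RNA to DNA barcode read ratio; higher means stronger binding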
T2 chain: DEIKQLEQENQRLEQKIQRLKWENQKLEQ

O16-bP = biological target: T3, O16-bP; assay: two-hybrid library CCNG1;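 note: natural log of median RNA to DNA barcode read ratio; higher means stronger binding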
T3 chain: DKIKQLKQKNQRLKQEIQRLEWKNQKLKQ

O2-bP = biological target: T4, O2-bP; assay: two-hybrid library CCNG1;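 note: natural log of median RNA to DNA barcode read ratio; higher means stronger binding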
T4 chain: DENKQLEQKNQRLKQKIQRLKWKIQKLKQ

O3-bP = biological target: T5, O3-bP; assay: two-hybrid library CCNG1;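 note: natural log of median RNA to DNA barcode read ratio; higher means stronger binding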
T5 chain: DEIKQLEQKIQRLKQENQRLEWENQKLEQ

O4-bP = biological target: T6, O4-bP; assay: two-hybrid library CCNG1;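 note: natural log of median RNA to DNA barcode read ratio; higher means stronger binding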
T6 chain: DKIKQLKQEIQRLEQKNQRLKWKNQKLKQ

O5-bP = biological target: T7, O5-bP; assay: two-hybrid library CCNG1
T7 chain: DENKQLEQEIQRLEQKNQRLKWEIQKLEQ

O6-bP = biological target: T8, O6-bP; assay: two-hybrid library CCNG1
T8 chain: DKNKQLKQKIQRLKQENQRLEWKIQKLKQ

O7-bP = biological target: T9, O7-bP; assay: two-hybrid library CCNG1
T9 chain: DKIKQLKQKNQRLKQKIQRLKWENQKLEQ

O8-bP = biological target: T10, O8-bP; assay: two-hybrid library CCNG1
T10 chain: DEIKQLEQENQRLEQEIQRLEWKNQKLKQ

O9-bP = biological target: T11, O9-bP; assay: two-hybrid library CCNG1
T11 chain: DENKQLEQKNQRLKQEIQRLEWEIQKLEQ

4H2600-AA = biological target: T12, 4H2600-AA; assay: two-hybrid library CCmax
T12 chain: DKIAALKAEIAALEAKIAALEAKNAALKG

4H2721-AA = biological target: T13, 4H2721-AA; assay: two-hybrid library CCmax; settings: mean of both orientations
T13 chain: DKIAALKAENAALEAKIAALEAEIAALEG

4H2750-AA = biological target: T14, 4H2750-AA; assay: two-hybrid library CCmax; settings: mean of both orientations
T14 chain: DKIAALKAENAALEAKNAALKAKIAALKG

4H2898-AA = biological target: T15, 4H2898-AA; assay: two-hybrid library CCmax; settings: mean of both orientations
T15 chain: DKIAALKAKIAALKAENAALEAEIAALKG

4H3020-AA = biological target: T16, 4H3020-AA; assay: two-hybrid library CCmax; settings: mean of both orientations
T16 chain: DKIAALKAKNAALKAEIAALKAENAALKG

4H3365-AA = biological target: T17, 4H3365-AA; assay: two-hybrid library CCmax; settings: mean of both orientations
T17 chain: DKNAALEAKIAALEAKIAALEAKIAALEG

4H355-AA = biological target: T18, 4H355-AA; assay: two-hybrid library CCmax; settings: mean of both orientations
T18 chain: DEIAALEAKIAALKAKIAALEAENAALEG

4H3651-AA = biological target: T19, 4H3651-AA; assay: two-hybrid library CCmax; settings: mean of both orientations
T19 chain: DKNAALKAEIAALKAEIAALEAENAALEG

4H3705-AA = biological target: T20, 4H3705-AA; assay: two-hybrid library CCmax; settings: mean of both orientations
T20 chain: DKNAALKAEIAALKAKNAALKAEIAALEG

4H3782-AA = biological target: T21, 4H3782-AA; assay: two-hybrid library CCmax; settings: mean of both orientations
T21 chain: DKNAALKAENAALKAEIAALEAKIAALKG

4H465-AA = biological target: T22, 4H465-AA; assay: two-hybrid library CCmax; settings: mean of both orientations
T22 chain: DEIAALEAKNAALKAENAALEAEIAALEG

4H486-AA = biological target: T23, 4H486-AA; assay: two-hybrid library CCmax; settings: mean of both orientations
T23 chain: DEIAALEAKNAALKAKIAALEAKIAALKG

4H535-AA = biological target: T24, 4H535-AA; assay: two-hybrid library CCmax; settings: mean of both orientations
T24 chain: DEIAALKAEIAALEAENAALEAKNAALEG

4H58-AA = biological target: T25, 4H58-AA; assay: two-hybrid library CCmax; settings: mean of both orientations
T25 chain: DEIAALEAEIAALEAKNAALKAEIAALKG

4H895-AA = biological target: T26, 4H895-AA; assay: two-hybrid library CCmax; settings: mean of both orientations
T26 chain: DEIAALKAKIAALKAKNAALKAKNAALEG

4H_APH = biological target: T27, 4H_APH; assay: two-hybrid library CCmax
T27 chain: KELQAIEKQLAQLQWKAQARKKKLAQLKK

4H_BCR = biological target: T28, 4H_BCR; assay: two-hybrid library CCmax; settings: mean of both orientations
T28 chain: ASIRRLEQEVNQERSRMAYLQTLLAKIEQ

4H_GCN4 = assay: two-hybrid library CCmax
Chain of 4H_GCN4 (chain, as listed by the source): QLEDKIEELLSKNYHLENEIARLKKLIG

GCN2_T = assay: two-hybrid library CCmax
4H2458-AA = biological target: T29, 4H2458-AA; assay: two-hybrid library CCmax
T29 chain: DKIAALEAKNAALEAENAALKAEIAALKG

4H3330-AA = biological target: T30, 4H3330-AA; assay: two-hybrid library CCmax; settings: mean of both orientations
T30 chain: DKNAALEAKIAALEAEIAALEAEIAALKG

4H716-AA = biological target: T31, 4H716-AA; assay: two-hybrid library CCmax; settings: mean of both orientations
T31 chain: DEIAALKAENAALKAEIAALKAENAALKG

4H733-AA = biological target: T32, 4H733-AA; assay: two-hybrid library CCmax; settings: mean of both orientations
T32 chain: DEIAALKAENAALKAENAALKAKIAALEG

4H807-AA = biological target: T33, 4H807-AA; assay: two-hybrid library CCmax; settings: mean of both orientations
T33 chain: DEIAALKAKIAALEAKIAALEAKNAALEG

APC1015-AA = biological target: T34, APC1015-AA; assay: two-hybrid library CCmax; settings: mean of both orientations
T34 chain: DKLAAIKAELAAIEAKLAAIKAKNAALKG

APC1434-AA = biological target: T35, APC1434-AA; assay: two-hybrid library CCmax; settings: mean of both orientations
T35 chain: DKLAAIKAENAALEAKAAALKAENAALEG

APC2237-AA = biological target: T36, APC2237-AA; assay: two-hybrid library CCmax; settings: mean of both orientations
T36 chain: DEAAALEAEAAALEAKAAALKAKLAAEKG

APC232-AA = biological target: T37, APC232-AA; assay: two-hybrid library CCmax; settings: mean of both orientations
T37 chain: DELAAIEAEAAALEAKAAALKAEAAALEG

APC2405-AA = biological target: T38, APC2405-AA; assay: two-hybrid library CCmax; settings: mean of both orientations
T38 chain: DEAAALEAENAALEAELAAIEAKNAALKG

APC3645-AA = biological target: T39, APC3645-AA; assay: two-hybrid library CCmax; settings: mean of both orientations
T39 chain: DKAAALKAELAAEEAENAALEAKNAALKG

APC4011-AA = biological target: T40, APC4011-AA; assay: two-hybrid library CCmax; settings: mean of both orientations
T40 chain: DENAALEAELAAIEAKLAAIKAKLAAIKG

APC4264-AA = biological target: T41, APC4264-AA; assay: two-hybrid library CCmax; settings: mean of both orientations
T41 chain: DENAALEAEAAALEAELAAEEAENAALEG

APC4436-AA = biological target: T42, APC4436-AA; assay: two-hybrid library CCmax; settings: mean of both orientations
T42 chain: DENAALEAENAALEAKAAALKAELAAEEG

APC5383-AA = biological target: T43, APC5383-AA; assay: two-hybrid library CCmax; settings: mean of both orientations
T43 chain: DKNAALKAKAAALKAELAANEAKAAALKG

APC6108-AA = biological target: T44, APC6108-AA; assay: two-hybrid library CCmax; settings: mean of both orientations
T44 chain: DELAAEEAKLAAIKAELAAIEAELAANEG

APC7099-AA = biological target: T45, APC7099-AA; assay: two-hybrid library CCmax; settings: mean of both orientations
T45 chain: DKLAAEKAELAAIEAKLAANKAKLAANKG

APC8191-AA = biological target: T46, APC8191-AA; assay: two-hybrid library CCmax; settings: mean of both orientations
T46 chain: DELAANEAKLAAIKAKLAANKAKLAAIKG

APC8910-AA = biological target: T47, APC8910-AA; assay: two-hybrid library CCmax; settings: mean of both orientations
T47 chain: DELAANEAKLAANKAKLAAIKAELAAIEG

APC9096-AA = biological target: T48, APC9096-AA; assay: two-hybrid library CCmax; settings: mean of both orientations
T48 chain: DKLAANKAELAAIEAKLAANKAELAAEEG

APC9319-AA = biological target: T49, APC9319-AA; assay: two-hybrid library CCmax; settings: mean of both orientations
T49 chain: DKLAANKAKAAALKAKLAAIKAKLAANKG

interaction score (O14-bP): -1.46
interaction score (O15-bP): -0.0315
interaction score (O16-bP): 1.73
interaction score (O2-bP): -0.77
interaction score (O3-bP): -0.787
interaction score (O4-bP): -1.04
interaction score (O5-bP): 1.11
interaction score (O6-bP): 1.82
interaction score (O7-bP): 0.0513
interaction score (O8-bP): -2.05
interaction score (O9-bP): -0.215
Binder: DENKQLEQEIQRLEQENQRLEWKIQKLKQ [O14-bP]

interaction score (4H2600-AA): 1.58
interaction score (4H2721-AA): -0.793
interaction score (4H2750-AA): -1.65
interaction score (4H2898-AA): 0.0245
interaction score (4H3020-AA): -0.911
interaction score (4H3365-AA): -0.236
interaction score (4H355-AA): 2.12
interaction score (4H3651-AA): 0.646
interaction score (4H3705-AA): 0.21
interaction score (4H3782-AA): -1.12
interaction score (4H465-AA): -1.72
interaction score (4H486-AA): 0.497
interaction score (4H535-AA): -0.657
interaction score (4H58-AA): 0.179
interaction score (4H895-AA): -0.393
interaction score (4H_APH): -1.47
interaction score (4H_BCR): -1.4
interaction score (4H_GCN4): -1.63
interaction score (GCN2_T): -1.38
Binder: DKIAALKAEIAALEAKIAALEAKNAALKG [4H2600-AA]

interaction score (4H2458-AA): 2.24
interaction score (4H3330-AA): -1.38
interaction score (4H716-AA): -0.991
interaction score (4H733-AA): -1.61
interaction score (4H807-AA): -1.17
interaction score (APC1015-AA): -1.95
interaction score (APC1434-AA): -1.22
interaction score (APC2237-AA): -1.44
interaction score (APC232-AA): -1.85
interaction score (APC2405-AA): -1.59
interaction score (APC3645-AA): -1.47
interaction score (APC4011-AA): -0.914
interaction score (APC4264-AA): -1.79
interaction score (APC4436-AA): -1.67
interaction score (APC5383-AA): -1.7
interaction score (APC6108-AA): -1.71
interaction score (APC7099-AA): -1.31
interaction score (APC8191-AA): -2.11
interaction score (APC8910-AA): -1.49
interaction score (APC9096-AA): -1.34
interaction score (APC9319-AA): -2.07
Binder: DKIAALEAKNAALEAENAALKAEIAALKG [4H2458-AA]

— article PMC10397247
